Laboratory results from the supplement of paper PMC9112550, “Optimization of the antimicrobial peptide Bac7 by deep mutational scanning” (BMC Biology, 2022).

Tested on: Escherichia coli TOP10
Assay: shrunken log2 fold change of peptide-encoding DNA abundance (4.5 h post-induction vs induction); higher = less antimicrobial activity (less host growth inhibition)
Conditions: time post-induction: 4.5 h; library: site-saturation at positions 5, 18, 19, 20
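Further: peptides expressed intracellularly from a pBAD plasmid library in pooled LB shake-flask culture, induced with 0.3% L-arabinose, DNA abundance read by NGS, three biological replicates, DESeq2 with apeglm shrinkage.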

| Sequence | shrunken log2 fold change |
| --- | --- |
| RRIRRRPPRLPRPRPRPQVCPRP | -0.175 |
| RRIRVRPPRLPRPRPRPMCGPRP | 0.0281 |
| RRIRSRPPRLPRPRPRPHFFPRP | -0.0717 |
| RRIRGRPPRLPRPRPRPNSPPRP | -0.0974 |
| RRIRHRPPRLPRPRPRPYILPRP | -0.576 |
| RRIRQRPPRLPRPRPRPGNDPRP | -0.299 |
| RRIRVRPPRLPRPRPRPWSQPRP | -0.219 |
| RRIRARPPRLPRPRPRPQEQPRP | 0.0884 |
| RRIRKRPPRLPRPRPRPGMPPRP | 0.625 |
| RRIRKRPPRLPRPRPRPQHKPRP | 0.196 |
| RRIRMRPPRLPRPRPRPPQSPRP | 0.721 |
| RRIRGRPPRLPRPRPRPFYWPRP | 0.161 |
| RRIRIRPPRLPRPRPRPGNDPRP | -0.0662 |
| RRIRPRPPRLPRPRPRPKLWPRP | 0.683 |
| RRIRNRPPRLPRPRPRPLMWPRP | -0.175 |
| RRIRMRPPRLPRPRPRPWVCPRP | 0.154 |
| RRIRGRPPRLPRPRPRPANSPRP | 0.186 |
| RRIRARPPRLPRPRPRPPKWPRP | 0.732 |
| RRIRPRPPRLPRPRPRPLNMPRP | -0.432 |
| RRIRGRPPRLPRPRPRPIKNPRP | 0.488 |
| RRIRRRPPRLPRPRPRPVYHPRP | -0.0449 |
| RRIRPRPPRLPRPRPRPEKAPRP | 0.385 |
| RRIRVRPPRLPRPRPRPYVCPRP | -0.525 |
| RRIRHRPPRLPRPRPRPNPKPRP | -0.0127 |
| RRIRYRPPRLPRPRPRPLVDPRP | -0.289 |

| Sequence | shrunken log2 fold change |
| --- | --- |
| RRIRPRPPRLPRPRPRPCCWPRP | 0.81 |
| RRIRDRPPRLPRPRPRPLKHPRP | -0.927 |
| RRIRERPPRLPRPRPRPLRWPRP | 0.459 |
| RRIRRRPPRLPRPRPRPHRSPRP | -0.00354 |
| RRIRDRPPRLPRPRPRPNTSPRP | -0.284 |
| RRIRDRPPRLPRPRPRPVHPPRP | 0.184 |
| RRIRFRPPRLPRPRPRPGIAPRP | -0.15 |
| RRIRVRPPRLPRPRPRPRLYPRP | 0.13 |
| RRIRGRPPRLPRPRPRPLSMPRP | 1.34 |
| RRIRDRPPRLPRPRPRPETYPRP | 0.217 |
| RRIRFRPPRLPRPRPRPRNIPRP | -0.313 |
| RRIRQRPPRLPRPRPRPTRFPRP | 0.04 |
| RRIRRRPPRLPRPRPRPPKAPRP | -0.00754 |
| RRIRGRPPRLPRPRPRPKWAPRP | 0.155 |
| RRIRTRPPRLPRPRPRPYPIPRP | 0.00205 |
| RRIRKRPPRLPRPRPRPKWWPRP | 0.238 |
| RRIRERPPRLPRPRPRPTRSPRP | -0.196 |
| RRIRWRPPRLPRPRPRPCTNPRP | -0.0757 |
| RRIRTRPPRLPRPRPRPGKEPRP | -0.00507 |
| RRIRQRPPRLPRPRPRPWWTPRP | -0.01 |
| RRIRNRPPRLPRPRPRPCNLPRP | -0.134 |
| RRIRWRPPRLPRPRPRPTIVPRP | -0.33 |
| RRIRFRPPRLPRPRPRPIIHPRP | -0.795 |
| RRIRRRPPRLPRPRPRPRHVPRP | 0.158 |
| RRIRGRPPRLPRPRPRPHQYPRP | -0.226 |

| Sequence | shrunken log2 fold change |
| --- | --- |
| RRIRMRPPRLPRPRPRPATDPRP | 0.843 |
| RRIRSRPPRLPRPRPRPTCYPRP | -0.0144 |
| RRIRGRPPRLPRPRPRPMDNPRP | 0.12 |
| RRIRSRPPRLPRPRPRPSMKPRP | -0.59 |
| RRIRLRPPRLPRPRPRPNIMPRP | -0.602 |
| RRIRHRPPRLPRPRPRPVQYPRP | 0.00489 |
| RRIRWRPPRLPRPRPRPSYEPRP | 0.086 |
| RRIRHRPPRLPRPRPRPPYRPRP | -0.399 |
| RRIRHRPPRLPRPRPRPCSIPRP | -0.0189 |
| RRIRFRPPRLPRPRPRPVCEPRP | 0.182 |
| RRIRNRPPRLPRPRPRPGHNPRP | -0.64 |
| RRIRNRPPRLPRPRPRPFGMPRP | 0.0298 |
| RRIRHRPPRLPRPRPRPWSLPRP | -0.121 |
| RRIRYRPPRLPRPRPRPHDIPRP | -0.00174 |
| RRIRVRPPRLPRPRPRPNWYPRP | -0.523 |
| RRIRRRPPRLPRPRPRPCDSPRP | -0.396 |
| RRIRRRPPRLPRPRPRPDEMPRP | 0.753 |
| RRIRHRPPRLPRPRPRPAPCPRP | 0.288 |
| RRIRLRPPRLPRPRPRPASDPRP | -0.19 |
| RRIRMRPPRLPRPRPRPYMIPRP | -0.00479 |
| RRIRVRPPRLPRPRPRPRTKPRP | 0.0796 |
| RRIRQRPPRLPRPRPRPENIPRP | -0.0809 |
| RRIRTRPPRLPRPRPRPMVFPRP | 0.0283 |
| RRIRSRPPRLPRPRPRPWQNPRP | -0.194 |
| RRIRARPPRLPRPRPRPMLKPRP | 0.216 |

| Sequence | shrunken log2 fold change |
| --- | --- |
| RRIRFRPPRLPRPRPRPECIPRP | -0.04 |
| RRIRVRPPRLPRPRPRPMKPPRP | -0.0376 |
| RRIRSRPPRLPRPRPRPTYEPRP | -0.328 |
| RRIRTRPPRLPRPRPRPEFHPRP | -0.351 |
| RRIRGRPPRLPRPRPRPSQGPRP | -0.187 |
| RRIRPRPPRLPRPRPRPSDHPRP | -0.605 |
| RRIRQRPPRLPRPRPRPYLPPRP | -0.0206 |
| RRIRTRPPRLPRPRPRPIFLPRP | -0.145 |
| RRIRDRPPRLPRPRPRPPTNPRP | 0.0808 |
| RRIRNRPPRLPRPRPRPKVEPRP | 0.039 |
| RRIRMRPPRLPRPRPRPLLRPRP | 0.0923 |
| RRIRCRPPRLPRPRPRPGFTPRP | -0.131 |
| RRIRNRPPRLPRPRPRPTACPRP | 0.0275 |
| RRIRRRPPRLPRPRPRPLWCPRP | 0.186 |
| RRIRSRPPRLPRPRPRPSAWPRP | 0.555 |
| RRIRTRPPRLPRPRPRPWYVPRP | -0.275 |
| RRIRSRPPRLPRPRPRPPRQPRP | 0.389 |
| RRIRMRPPRLPRPRPRPKQWPRP | 0.895 |
| RRIRKRPPRLPRPRPRPVVTPRP | 0.417 |
| RRIRQRPPRLPRPRPRPFVHPRP | -0.0465 |
| RRIRLRPPRLPRPRPRPSLGPRP | -0.213 |
| RRIRMRPPRLPRPRPRPQRTPRP | 1.56 |
| RRIRFRPPRLPRPRPRPEEGPRP | 0.00408 |
| RRIRTRPPRLPRPRPRPRSPPRP | 0.0437 |
| RRIRFRPPRLPRPRPRPTKFPRP | -0.355 |

| Sequence | shrunken log2 fold change |
| --- | --- |
| RRIRDRPPRLPRPRPRPNCDPRP | -0.144 |
| RRIRTRPPRLPRPRPRPRLDPRP | -0.0828 |
| RRIRDRPPRLPRPRPRPIHDPRP | -0.58 |
| RRIRCRPPRLPRPRPRPYEYPRP | -0.769 |
| RRIRYRPPRLPRPRPRPRPFPRP | -0.104 |
| RRIRTRPPRLPRPRPRPSAVPRP | -0.0697 |
| RRIRLRPPRLPRPRPRPVVGPRP | 0.103 |
| RRIRLRPPRLPRPRPRPMCFPRP | -0.332 |
| RRIRYRPPRLPRPRPRPEAFPRP | -0.00226 |
| RRIRKRPPRLPRPRPRPAPMPRP | 0.769 |
| RRIRFRPPRLPRPRPRPNTEPRP | -0.479 |
| RRIRWRPPRLPRPRPRPNLFPRP | 0.144 |
| RRIRHRPPRLPRPRPRPNAEPRP | -0.0088 |
| RRIRMRPPRLPRPRPRPVTCPRP | 0.0862 |
| RRIRPRPPRLPRPRPRPTMSPRP | 0.0176 |
| RRIRDRPPRLPRPRPRPNMNPRP | -0.41 |
| RRIRPRPPRLPRPRPRPFDVPRP | 0.0778 |
| RRIRWRPPRLPRPRPRPQAVPRP | 0.232 |
| RRIRWRPPRLPRPRPRPYELPRP | -0.0904 |
| RRIRARPPRLPRPRPRPLGRPRP | 0.321 |
| RRIRCRPPRLPRPRPRPQGVPRP | 0.0642 |
| RRIRWRPPRLPRPRPRPFPVPRP | -0.0948 |
| RRIRHRPPRLPRPRPRPDRRPRP | -0.118 |
| RRIRYRPPRLPRPRPRPSTQPRP | -0.641 |
| RRIRLRPPRLPRPRPRPFIHPRP | -0.807 |

| Sequence | shrunken log2 fold change |
| --- | --- |
| RRIRLRPPRLPRPRPRPHPPPRP | 1 |
| RRIRQRPPRLPRPRPRPRVCPRP | 0.303 |
| RRIRKRPPRLPRPRPRPWGFPRP | 0.0651 |
| RRIRMRPPRLPRPRPRPYHWPRP | -0.101 |
| RRIRSRPPRLPRPRPRPHEVPRP | -0.0564 |
| RRIRERPPRLPRPRPRPFLWPRP | 0.155 |
| RRIRQRPPRLPRPRPRPQHNPRP | -0.786 |
| RRIRKRPPRLPRPRPRPKVIPRP | 0.156 |
| RRIRFRPPRLPRPRPRPVMEPRP | 0.352 |
| RRIRSRPPRLPRPRPRPDISPRP | -0.0675 |
| RRIRKRPPRLPRPRPRPATSPRP | 0.288 |
| RRIRIRPPRLPRPRPRPPFGPRP | 0.255 |
| RRIRARPPRLPRPRPRPKTEPRP | 0.38 |
| RRIRSRPPRLPRPRPRPKVHPRP | -0.231 |
| RRIRERPPRLPRPRPRPPLTPRP | -0.0766 |
| RRIRFRPPRLPRPRPRPPAFPRP | 0.112 |
| RRIRKRPPRLPRPRPRPVADPRP | 0.14 |
| RRIRNRPPRLPRPRPRPYPFPRP | 0.0247 |
| RRIRYRPPRLPRPRPRPHICPRP | -0.0358 |
| RRIRFRPPRLPRPRPRPFCIPRP | -0.518 |
| RRIRNRPPRLPRPRPRPHAWPRP | -0.0119 |
| RRIRHRPPRLPRPRPRPGHTPRP | 0.105 |
| RRIRHRPPRLPRPRPRPCTQPRP | -0.367 |
| RRIRPRPPRLPRPRPRPHGIPRP | 0.0828 |
| RRIRHRPPRLPRPRPRPLFNPRP | -0.58 |
